Measured values from PMC8167360.

Target: Mac2 (SUD-N, macrodomain II) of SARS-CoV Nsp3, purified (SARS-CoV (strain Frankfurt))
Assay: ITC; […] ([…]) […] ([…]) […]; 25°C; VP-ITC; 20 mM Tris–HCl pH 8.5, 150 mM NaCl

B1: middle domain of human Paip1 (Paip1M), purified (domain or fragment)
chain: GSHMASMTGGQQMGRGSTLSEYVQDFLNHLTEQPGSFETEIEQFAETLNGCVTTDDALQELVELIYQQATSIPNFSYMGARLCNYLSHHLTISPQSGNFRQLLLQRCRTEYEVKDQAAKGDEVTRKRFHAFVLFLGELYLNLEIKGTNGQVTRADILQVGLRELLNALFSNPMDDNLICAVKLLKLTGSVLEDAWKEKGKMDMEEIIQRIENVVLDANCSRDVKQMLLKLVELRSS
**Q.** B1 was tested. Which Kd did it give?
**A.** 15.5 µM

**Q.** What about the dH of the same binder?
**A.** -6.78 kcal/mol

**Q.** What about the stoichiometry N of the same binder?
**A.** 0.94
